Positions count from the first letter of the chain named. Names may count otherwise.
B1: humVHH_S56A (VHH)
VHH: EVQLVESGGGLVQPGGSLRLSCAASGRTFSEYAMGWFRQAPGKEREFVATISWSGGATYYTDSVKGRFTISRDNAKNTVYLQMNSLRPEDTAVYYCAAAGLGTVVSEWDYDYDYWGQGTLVTVSS
notes: also called humVHH72_S56A; VHH72_h1_S56A
B2: humVHH (VHH)
VHH: B1 VHH with A57S
notes: also called humanized VHH72; VHH72_h1
B3: humVHH_S56A (VHH)
VHH: B1 VHH
notes: also called monomeric humanized VHH72 with the S56A substitution

How the values were obtained:
[1] = target: mouse IgG1 Fc-fused SARS-CoV-2 RBD (SARS-CoV-2, UniProt P0DTC2); experiment: BLI; conditions: both partners purified
[2] = target: monomeric human Fc-fused SARS-CoV-2_RBD-SD1 (SARS-CoV-2, Wuhan-Hu-1, UniProt P0DTC2); experiment: BLI; conditions: both partners purified
[3] = target: SARS-CoV-1 spike (SARS-CoV-1, reference entry; strain not …, UniProt P59594); experiment: cell-based or functional assay

Binder	koff [1]	fold increase in affinity over humVHH [2]	neutralization of VSV SARS-CoV-1 spike pseudotype virus, potency against humVHH [3]
B1	0.019 s⁻¹		
B2	0.075 s⁻¹		
B3		~7 fold	10 fold

Source: paper PMC9924070 (Science Translational Medicine, 2021)
